Laboratory results: patent US9127040B2, “Regulation of sodium channels by PLUNC proteins” (The University of North Carolina at Chapel Hill, priority 2011, dated 2015)

Key:
αENaC = biological target: T1, αENaC (Rattus norvegicus, UniProt P37089+P37090); assay: Surface biotinylation of αENaC in Xenopus oocytes; assay type: cell-based; settings: coexpression with SPLUNC1
T1 construct: expressed in transfected cells; host or cells: Xenopus oocytes
T1 sequence (P37089 1-698): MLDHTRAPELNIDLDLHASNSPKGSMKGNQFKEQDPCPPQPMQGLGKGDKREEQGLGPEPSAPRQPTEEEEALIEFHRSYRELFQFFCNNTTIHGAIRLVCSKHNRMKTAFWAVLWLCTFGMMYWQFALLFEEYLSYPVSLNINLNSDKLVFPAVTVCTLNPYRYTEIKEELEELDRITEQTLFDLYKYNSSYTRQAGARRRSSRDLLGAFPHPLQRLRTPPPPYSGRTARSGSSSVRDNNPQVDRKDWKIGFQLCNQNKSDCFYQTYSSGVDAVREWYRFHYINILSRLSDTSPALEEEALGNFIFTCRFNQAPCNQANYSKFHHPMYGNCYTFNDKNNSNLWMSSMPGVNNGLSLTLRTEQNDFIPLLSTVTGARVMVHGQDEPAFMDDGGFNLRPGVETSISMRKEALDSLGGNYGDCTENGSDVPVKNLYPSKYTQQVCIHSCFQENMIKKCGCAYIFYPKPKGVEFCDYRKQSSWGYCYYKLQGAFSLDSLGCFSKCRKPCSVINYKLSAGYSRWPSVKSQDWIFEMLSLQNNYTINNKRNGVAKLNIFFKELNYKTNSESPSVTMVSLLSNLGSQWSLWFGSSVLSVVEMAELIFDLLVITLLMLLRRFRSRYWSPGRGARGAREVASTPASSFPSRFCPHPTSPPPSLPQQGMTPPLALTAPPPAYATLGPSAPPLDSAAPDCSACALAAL
T1 sequence (P37090 1-638): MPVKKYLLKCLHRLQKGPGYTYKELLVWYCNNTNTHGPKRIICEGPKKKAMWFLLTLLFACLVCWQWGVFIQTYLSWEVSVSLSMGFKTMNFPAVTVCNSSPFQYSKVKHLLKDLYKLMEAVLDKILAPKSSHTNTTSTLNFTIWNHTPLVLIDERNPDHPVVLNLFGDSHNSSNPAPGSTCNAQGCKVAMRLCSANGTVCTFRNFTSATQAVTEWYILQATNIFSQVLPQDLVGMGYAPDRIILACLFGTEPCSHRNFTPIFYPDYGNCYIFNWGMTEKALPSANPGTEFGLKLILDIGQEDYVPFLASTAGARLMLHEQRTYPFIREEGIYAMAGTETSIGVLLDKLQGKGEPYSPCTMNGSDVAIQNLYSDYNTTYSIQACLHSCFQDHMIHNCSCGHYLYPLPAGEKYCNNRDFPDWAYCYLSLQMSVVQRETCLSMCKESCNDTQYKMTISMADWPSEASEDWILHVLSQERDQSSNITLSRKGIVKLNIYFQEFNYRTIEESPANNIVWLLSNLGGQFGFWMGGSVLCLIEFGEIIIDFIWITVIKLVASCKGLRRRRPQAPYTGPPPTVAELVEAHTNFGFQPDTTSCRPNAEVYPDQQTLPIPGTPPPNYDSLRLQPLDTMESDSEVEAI
T1 sequence (P37091 1-650 partner): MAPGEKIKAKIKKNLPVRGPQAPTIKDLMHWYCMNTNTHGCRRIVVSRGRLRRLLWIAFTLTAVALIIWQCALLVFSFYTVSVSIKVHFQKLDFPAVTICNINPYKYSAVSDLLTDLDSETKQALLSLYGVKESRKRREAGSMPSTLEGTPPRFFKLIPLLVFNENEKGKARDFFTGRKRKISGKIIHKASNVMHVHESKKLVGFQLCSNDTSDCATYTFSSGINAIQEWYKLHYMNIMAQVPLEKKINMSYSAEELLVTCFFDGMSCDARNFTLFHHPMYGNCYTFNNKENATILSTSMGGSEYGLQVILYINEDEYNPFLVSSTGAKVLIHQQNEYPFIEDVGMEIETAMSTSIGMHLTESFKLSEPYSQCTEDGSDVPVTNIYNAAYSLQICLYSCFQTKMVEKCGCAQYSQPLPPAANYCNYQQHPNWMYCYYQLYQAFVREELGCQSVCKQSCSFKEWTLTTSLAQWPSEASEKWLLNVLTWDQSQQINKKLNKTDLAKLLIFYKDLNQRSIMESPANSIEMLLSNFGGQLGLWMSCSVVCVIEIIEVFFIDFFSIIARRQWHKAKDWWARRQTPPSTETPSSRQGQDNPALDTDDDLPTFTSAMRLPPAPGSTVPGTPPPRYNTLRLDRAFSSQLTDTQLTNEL
Protocol: The effect of SPLUNC1 on the number of ENaC channels in the plasma membrane was tested by expressing SPLUNC1 and αENaC in Xenopus oocytes. After surface biotinylation of αENaC, total lysate was prepared and lysate from 3-4 eggs was separated on a 10% gel.

neutrophil elastase = biological target: T2, neutrophil elastase (Homo sapiens, UniProt P08246); assay: Cleavage of SPLUNC1 by neutrophil elastase at pH 6 vs 7.4; settings: 10 μM SPLUNC1, 100 nM neutrophil elastase
T2 sequence (P08246 30-267): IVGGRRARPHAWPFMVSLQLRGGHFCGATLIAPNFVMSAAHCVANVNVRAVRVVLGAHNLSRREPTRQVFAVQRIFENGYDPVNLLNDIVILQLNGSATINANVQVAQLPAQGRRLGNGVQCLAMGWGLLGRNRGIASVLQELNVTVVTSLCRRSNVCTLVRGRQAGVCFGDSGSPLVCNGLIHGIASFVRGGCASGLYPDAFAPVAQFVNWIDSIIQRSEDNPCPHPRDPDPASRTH
Protocol: A, Neutrophil elastase activity is moderately greater at pH 6 than at pH 7.4. B, Coomassie-stained gel showing 10 μM SPLUNC1 exposed to 100 nM Neutrophil elastase at pH 6 and 7.4. The reaction was stopped at timed intervals.
Based on SPLUNC1 but not S18's pH-sensitivity (FIGS. 25B and 25C), we hypothesized that SPLUNC1 undergoes a conformational change, and binds to itself at pH 6. To test this, we exposed SPLUNC1 to neutrophil elastase at pH 6 vs. 7.4 (FIG. 26). […] This is consistent with our hypothesis that less SPLUNC1 is exposed at low pH.

trypsin = assay: Cell-free fluorogenic assay, trypsin cleavage of BGAR-MCA; assay type: biochemical; settings: 50 ng/ml rSPLUNC1 or 2 U/ml aprotinin; 1.0 or 0.3 U/ml trypsin
Protocol: For cell-free assays, reactions were carried out in 50 μl Ringer in a 96 well plate format with 100 μM BGAR-MCA. To measure endogenous protease activity in human bronchial epithelial cultures, 30 μl Ringer with 100 μM BGAR-MCA were placed directly onto the mucosal surfaces of human bronchial epithelial cultures grown on 12 mm T-clear inserts and the cultures were assayed in 12 well plates.

B1: SPLUNC1: human SPLUNC1 (SEQ ID NO:1), 256 amino acid secreted PLUNC family protein; rSPLUNC1 is the purified V5/6His-tagged recombinant form (protein, listed as Homo sapiens)
chain: MFQTGGLIVFYGLLAQTMAQFGGLPVPLDQTLPLNVNPALPLSPTGLAGSLTNALSNGLLSGGLLGILENLPLLDILKPGGGTSGGLLGGLLGKVTSVIPGLNNIIDIKVTDPQLLELGLVQSPDGHRLYVTIPLGIKLQVNTPLVGASLLRLAVKLDITAEILAVRDKQERIHLVLGDCTHSPGSLQISLLDGLGPLPIQGLLDSLTGILNKVLPELVQGNVCPLVNEVLRGLDITLVHDIVNMLIHGLQFVIKV
modifications: V5/6His tag in recombinant form
notes: rSPLUNC1 is the purified V5/6His-tagged recombinant form
plasma membrane ENaC (surface biotinylation) (αENaC): decreased
cleavage by neutrophil elastase at pH 6 (neutrophil elastase): resistant to cleavage
inhibition of trypsin cleavage of fluorogenic substrate BGAR-MCA (trypsin): ~10%
